# Experimental data published in article PMC6359379, “SLC35A5 Protein—A Golgi Complex Member with Putative Nucleotide Sugar Transport Activity” (International Journal of Molecular Sciences, 2019).
# B1: Solute carrier family 35 member A5 (SLC35A5), eGFP fusion (natural protein, human, UniProt Q9BS91 1-424, looked up)
# chain: MEKQCCSHPVICSLSTMYTFLLGAIFIALSSSRILLVKYSANEENKYDYLPTTVNVCSELVKLVFCVLVSFCVIKKDHQSRNLKYASWKEFSDFMKWSIPAFLYFLDNLIVFYVLSYLQPAMAVIFSNFSIITTALLFRIVLKRRLNWIQWASLLTLFLSIVALTAGTKTLQHNLAGRGFHHDAFFSPSNSCLLFRSECPRKDNCTAKEWTFPEAKWNTTARVFSHIRLGMGHVLIIVQCFISSMANIYNEKILKEGNQLTESIFIQNSKLYFFGILFNGLTLGLQRSNRDQIKNCGFFYGHSAFSVALIFVTAFQGLSVAFILKFLDNMFHVLMAQVTTVIITTVSVLVFDFRPSLEFFLEAPSVLLSIFIYNASKPQVPEYAPRQERIRDLSGNLWERSSGDGEELERLTKPKSDESDEDTF
# notes: SLC35A5, putative nucleotide sugar transporter; expressed from the plasmid pTag-GFP2-C-A5; FRET donor in every pair; In the pair A5 + A5 the second copy carried mRFP (pTag-RFP-C-SLC35A construct) in place of eGFP; also called pTag-GFP2-C-A5; source: HEK293T, transiently transfected, in living cells
# Target: B1
# Assay: FRET or BRET; FLIM/FRET in living HEK293T cells transiently co-transfected, analysed 48 h after transfection in FluoroBrite DMEM; SLC35A5-eGFP as donor, mRFP-tagged SLC35A proteins as acceptors; eGFP lifetime of the donor alone 2.70 ns
# Conditions: partners not purified
row,eGFP fluorescence lifetime of the donor with the acceptor (donor alone 2.70 ns),Binder
1,2.24 ns,"UDP-galactose transporter (SLC35A2), Golgi splice variant, mRFP fusion (natural protein, UniProt P78381-2 1-393, looked up, expressed from a pTag-RFP-C-SLC35A construct; FRET acceptor; also called first splice variant of SLC35A2; source: HEK293T, transiently transfected, in living cells) MAAVGAGGSTAAPGPGAVSAGALEPGTASAAHRRLKYISLAVLVVQNASLILSIRYARTLPGDRFFATTAVVMAEVLKGLTCLLLLFAQKRGNVKHLVLFLHEAVLVQYVDTLKLAVPSLIYTLQNNLQYVAISNLPAATFQVTYQLKILTTALFSVLMLNRSLSRLQWASLLLLFTGVAIVQAQQAGGGGPRPLDQNPGAGLAAVVASCLSSGFAGVYFEKILKGSSGSVWLRNLQLGLFGTALGLVGLWWAEGTAVATRGFFFGYTPAVWGVVLNQAFGGLLVAVVVKYADNILKGFATSLSIVLSTVASIRLFGFHVDPLFALGAGLVIGAVYLYSLPRGAAKAIASASASASGPCVHQQPPGQPPPPQLSSHRGDLITEPFLPKSVLVK"
2,2.39 ns,"SLC35A4, mRFP fusion (natural protein, UniProt Q96G79 1-324, looked up, SLC35A4, member of the SLC35A subfamily; expressed from a pTag-RFP-C-SLC35A construct; FRET acceptor; source: HEK293T, transiently transfected, in living cells) MSVEDGGMPGLGRPRQARWTLMLLLSTAMYGAHAPLLALCHVDGRVPFRPSSAVLLTELTKLLLCAFSLLVGWQAWPQGPPPWRQAAPFALSALLYGANNNLVIYLQRYMDPSTYQVLSNLKIGSTAVLYCLCLRHRLSVRQGLALLLLMAAGACYAAGGLQVPGNTLPSPPPAAAASPMPLHITPLGLLLLILYCLISGLSSVYTELLMKRQRLPLALQNLFLYTFGVLLNLGLHAGGGSGPGLLEGFSGWAALVVLSQALNGLLMSAVMKHGSSITRLFVVSCSLVVNAVLSAVLLRLQLTAAFFLATLLIGLAMRLYYGSR"
3,2.31 ns,"UDP-galactose transporter (SLC35A2), ER splice variant, mRFP fusion (natural protein, UniProt P78381-1 1-396, looked up, SLC35A2, UDP-galactose transporter, the second splice variant, localised mainly to the ER (A2-ER); expressed from a pTag-RFP-C-SLC35A construct; FRET acceptor; also called second splice variant of SLC35A2; source: HEK293T, transiently transfected, in living cells) MAAVGAGGSTAAPGPGAVSAGALEPGTASAAHRRLKYISLAVLVVQNASLILSIRYARTLPGDRFFATTAVVMAEVLKGLTCLLLLFAQKRGNVKHLVLFLHEAVLVQYVDTLKLAVPSLIYTLQNNLQYVAISNLPAATFQVTYQLKILTTALFSVLMLNRSLSRLQWASLLLLFTGVAIVQAQQAGGGGPRPLDQNPGAGLAAVVASCLSSGFAGVYFEKILKGSSGSVWLRNLQLGLFGTALGLVGLWWAEGTAVATRGFFFGYTPAVWGVVLNQAFGGLLVAVVVKYADNILKGFATSLSIVLSTVASIRLFGFHVDPLFALGAGLVIGAVYLYSLPRGAAKAIASASASASGPCVHQQPPGQPPPPQLSSHRGDLITEPFLPKLLTKVKGS"
4,2.29 ns,"CMP-sialic acid transporter (SLC35A1), mRFP fusion (natural protein, UniProt P78382 1-337, looked up, SLC35A1, CMP-sialic acid transporter; expressed from a pTag-RFP-C-SLC35A construct; FRET acceptor; The legend writes 'mRFP/SLC35A proteins'; also called mRFP/SLC35A1; source: HEK293T, transiently transfected, in living cells) MAAPRDNVTLLFKLYCLAVMTLMAAVYTIALRYTRTSDKELYFSTTAVCITEVIKLLLSVGILAKETGSLGRFKASLRENVLGSPKELLKLSVPSLVYAVQNNMAFLALSNLDAAVYQVTYQLKIPCTALCTVLMLNRTLSKLQWVSVFMLCAGVTLVQWKPAQATKVVVEQNPLLGFGAIAIAVLCSGFAGVYFEKVLKSSDTSLWVRNIQMYLSGIIVTLAGVYLSDGAEIKEKGFFYGYTYYVWFVIFLASVGGLYTSVVVKYTDNIMKGFSAAAAIVLSTIASVMLFGLQITLTFALGTLLVCVSIYLYGLPRQDTTSIQQGETASKERVIGV"
5,2.35 ns,"UDP-N-acetylglucosamine transporter (SLC35A3), mRFP fusion (natural protein, UniProt Q9Y2D2 1-325, looked up, SLC35A3, UDP-N-acetylglucosamine transporter; expressed from a pTag-RFP-C-SLC35A construct; FRET acceptor; source: HEK293T, transiently transfected, in living cells) MFANLKYVSLGILVFQTTSLVLTMRYSRTLKEEGPRYLSSTAVVVAELLKIMACILLVYKDSKCSLRALNRVLHDEILNKPMETLKLAIPSGIYTLQNNLLYVALSNLDAATYQVTYQLKILTTALFSVSMLSKKLGVYQWLSLVILMTGVAFVQWPSDSQLDSKELSAGSQFVGLMAVLTACFSSGFAGVYFEKILKETKQSVWIRNIQLGFFGSIFGLMGVYIYDGELVSKNGFFQGYNRLTWIVVVLQALGGLVIAAVIKYADNILKGFATSLSIILSTLISYFWLQDFVPTSVFFLGAILVITATFLYGYDPKPAGNPTKA"

# Target: the molecule itself
# Assay: as above
# Conditions: not given
row,Binder,eGFP fluorescence lifetime of the donor with the acceptor (donor alone 2.70 ns)
1,B1,2.51 ns
